Assay results reported in patent publication US20220289830A1 (STAIDSON BEIJING BIOPHARMACEUTICALS, published 2022).

B1: 7C1 (antibody, V domains shown)
VH: EVQLLESGGGLVQPGGSLRLSCTASGFTFSDNHMSWVRQAPGKGLDWVSGISESGGSTNYADSVKGRFSTSRDNSKSTLYLDMNSLRAEDTAIYYCAKGRFSTSSSHFYRAVYGMDVWGQGTAVTVSS
VL: DIQLTQSPSSLSASVGDRVTITCRASQGISSYLAWYQQKPGKAPKLLIYAASTLQSGVPSRFSGSGSGTDFTLTISSLQPEDFATYYCQQLSSYPLSFGGGTKVEIK
notes: also called optimized anti-PcrV mAb clone 7C1
B2: 3B12 (antibody, V domains shown)
VH: EVQLLESGGGLVQPGGSLRLSCTASGFTFSSNHMSWVRQAPGKGLDWVSGISESGGSTNYADSVKGRFSTSRDNSKSTLYLDMNSLRAEDTAIYYCAKGRFSDEYGHFFRAVYGMDVWGQGTAVTVSS
VL: DIQLTQSPSSLSASVGDRVTITCRASQGISSYLAWYQQKPGKAPKLLIYAASTLQSGVPSRFSGSGSGTDFTLTISSLQPEDFATYYCQQLSSYPLTFGGGTKVEIK
notes: also called optimized anti-PcrV mAb clone 3B12
B3: 3A11 (antibody, V domains shown)
VH: EVQLLESGGGLVQPGGSLRLSCTASGFTFSSYHMSWVRQAPGKGLDWVSGISESGGSTNYADSVKGRFSTSRDNSKSTLYLDMNSLRAEDTAIYYCAKGRFSQSSSHFFRAVYGMDVWGQGTAVTVSS
VL: DIQLTQSPSSLSASVGDRVTITCRASQGISSYLAWYQQKPGKAPKLLIYAASTLQSGVPSRFSGSGSGTDFTLTISSLQPEDFATYYCQQLSSYPLTFGGGTKVEIK
notes: also called optimized anti-PcrV mAb clone 3A11
B4: 3G3 (antibody, V domains shown)
VH: EVQLLESGGGLVQPGGSLRLSCTASGFTFSDYPMSWVRQAPGKGLDWVSGISESGGSTYDADSVKGRFSTSRDNSKSTLYLDMNSLRAEDTAIYYCAKGRFSASAGHFFRAVYGMDVWGQGTAVTVSS
VL: DIQLTQSPSSLSASVGDRVTITCRASQGIRSYLAWYQQKPGKAPKLLIYAASTLQSGVPSRFSGSGSGTDFTLTISSLQPEDFATYYCQQLSSYPLSFGGGTKVEIK
notes: also called optimized anti-PcrV mAb clone 3G3
B5: 6A10 (antibody, V domains shown)
VH: EVQLLESGGGLVQPGGSLRLSCTASGFTFSDNHMSWVRQAPGKGLDWVSGISESGGSTNYADSVKGRFSTSRDNSKSTLYLDMNSLRAEDTAIYYCAKGRFSTSSSHFFRAVYGMDVWGQGTAVTVSS
VL: DIQLTQSPSSLSASVGDRVTITCRASQGISSYLAWYQQKPGKAPKLLIYAASTLQSGVPSRFSGSGSGTDFTLTISSLQPEDFATYYCQQLSSYPLSFGGGTKVEIK
notes: also called optimized anti-PcrV mAb clone 6A10
B6: 3A9 (antibody, V domains shown)
VH: EVQLLESGGGLVQPGGSLRLSCTASGFTFSDYSMSWVRQAPGKGLDWVSGISESGGSTNYADSVKGRFSTSRDNSKSTLYLDMNSLRAEDTAIYYCAKGRFSDSTKHFFRAVYGMDVWGQGTAVTVSS
VL: DIQLTQSPSSLSASVGDRVTITCRASQGISSYLAWYQQKPGKAPKLLIYAASTLQSGVPSRFSGSGSGTDFTLTISSLQPEDFATYYCQQLSSYPLSFGGGTKVEIK
notes: also called optimized anti-PcrV mAb clone 3A9
B7: 7B2 (antibody, V domains shown)
VH: EVQLLESGGGLVQPGGSLRLSCTASGFTFSDYPMSWVRQAPGKGLDWVSGISESGGSTNYADSVKGRFSTSRDNSKSTLYLDMNSLRAEDTAIYYCAKGRFSTDSSHFFRAVYGMDVWGQGTAVTVSS
VL: DIQLTQSPSSLSASVGDRVTITCRASQGISSYLAWYQQKPGKAPKLLIYAASTLQSGVPSRFSGSGSGTDFTLTISSLQPEDFATYYCQQLSSYPLSFGGGTKVEIK
notes: also called optimized anti-PcrV mAb clone 7B2

Tests used:
[1] = molecular target: T1, recombinant Pseudomonas aeruginosa PcrV, full-length (PAO), His-tagged (Pseudomonas aeruginosa); test: BLI
[2] = molecular target: T1, recombinant Pseudomonas aeruginosa …; test: SPR (BIACORE)
[3] = molecular target: T2, native PcrV on live Pseudomonas aeruginosa (strains O6-57/66, O11-PA103, O1-52/66, O16-177/81) (Pseudomonas aeruginosa); test: cell-based or functional assay
[4] = molecular target: T2, native PcrV on live Pseudomonas …; test: cell-based or functional assay; remark: listed apart in the source
[5] = molecular target: T2, native PcrV on live Pseudomonas …; test: cell-based or functional assay; remark: listed apart in the source
[6] = molecular target: T2, native PcrV on live Pseudomonas …; test: cell-based or functional assay; remark: listed apart in the source
[7] = molecular target: T1, recombinant Pseudomonas aeruginosa …; test: ELISA, PcrV coated on the plate, goat anti-human Fc-AP detection

Binder	Kd [1] [nM]	Kd [2] [nM]	RBC lysis assay IC50 (P. aeruginosa strain 57/66(O6)) [3] [mg/L]	A549 cytotoxicity assay IC50 (P. aeruginosa strain PA103(O11)) [4] [mg/L]	RBC lysis Average IC50 over the three strains [5] [mg/L]	RBC lysis IC50, strain O1-52/66 [5] [mg/L]	RBC lysis IC50, strain O6-57/66 [5] [mg/L]	RBC lysis IC50, strain O16-177/81 [5] [mg/L]	A549 cell lysis Average IC50 over the strains [6] [mg/L]	A549 cell lysis IC50, strain O1-52/66 [6] [mg/L]	A549 cell lysis IC50, strain O6-57/66 [6] [mg/L]	A549 cell lysis IC50, strain O11-PA103 [6] [mg/L]	A549 cell lysis IC50, strain O16-177/81 [6] [mg/L]	EC50 [7] [mg/L]
B1	0.101	0.0457	0.1	1.36	0.195	0.367	0.0767	0.141	1.18	2	0.496	1.12	1.09	0.134
B2	0.167		0.16	2.68										0.118
B3	0.126			0.91										0.0952
B4	0.381		0.18	2.75										0.0936
B5	0.204		0.04	2										0.104
B6	0.533		0.23	1.21										0.116
B7	0.0875		0.05	2.32										0.0967
